Changes are numbered by the printed parent chain. Names and notes keep the numbering of the source.

In test [1] the target is T1, human TIM-3 antigen (His-tagged TIM-3 extracellular domain expressed by Ampsource Biopharma Shanghai Inc.) (human, UniProt Q8TDQ0 22-202).
T1 construct: extracellular domain; also called TIM-3-His; not shown: His tag
The test can be described thus: ELISA, plate coated with His-tagged human TIM-3 extracellular domain. A general note: In an ELISA, binding on a coated surface is turned into a signal by an enzyme label.

The target in test [2] is TIM-3 (His-tagged, used in the TIM-3/PtdSer competitive ELISA) (UniProt Q8TDQ0 22-200, limits assumed). The test can be described thus: competitive ELISA, plate coated with PtdSer (phosphatidylserine, not a protein), His-tagged TIM-3 in solution with antibody, anti-6xHis-HRP.
Test [3] concerns the target T2, TIM3-Euk (TIM-3 reagent of the TIM-3/Gal9 binding assay kit) (UniProt Q8TDQ0 22-200, limits assumed, europium cryptate label (Euk), position not stated).
T2 construct: Kit reagent
The test can be described thus: HTRF competition, blocking of TIM-3/Galectin-9 binding (competitor: Tag-Gal9). In general terms: TR-FRET usually uses a lanthanide donor and a delayed reading to cut background.

Test [4] has as its target T3, human TIM-4 (Sino Biological Inc., catalog No. 12161-H08H) (human, UniProt Q96H15 25-315).
T3 construct: Bought protein
T3 sequence (looked up): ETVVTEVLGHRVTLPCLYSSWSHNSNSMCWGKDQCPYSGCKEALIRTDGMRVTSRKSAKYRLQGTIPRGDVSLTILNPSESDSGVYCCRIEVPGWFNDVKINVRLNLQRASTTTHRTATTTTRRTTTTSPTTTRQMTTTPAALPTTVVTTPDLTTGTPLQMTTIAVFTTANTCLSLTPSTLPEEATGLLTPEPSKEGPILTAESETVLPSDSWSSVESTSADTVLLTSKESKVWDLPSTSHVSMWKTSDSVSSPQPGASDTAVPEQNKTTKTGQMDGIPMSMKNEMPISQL
The test can be described thus: ELISA, plate coated with human TIM-4 at 1 ug/mL, detection with HRP-labeled goat anti-human IgG.

The target of test [5] is T4, mouse TIM-3 protein (Sino Biological Inc., catalog No. 51152-M08H) (mouse, UniProt Q8VIM0 20-191).
T4 construct: Bought protein; also called murine TIM-3
The test can be described thus: direct ELISA with HRP-labeled AB12S3, plate coated with mouse TIM-3 at 1 ug/mL.

Test [6] deals with T1, human TIM-3 antigen (His-tagged TIM-3 …). Put plainly: direct ELISA with HRP-labeled AB12S3, plate coated with human TIM-3 at 1 ug/mL.
Test [7] deals with monkey TIM-3 (Sino Biological Inc., catalog No. 90312-C02H) (monkey). The test can be described thus: direct ELISA with HRP-labeled AB12S3, plate coated with monkey TIM-3 at 1 ug/mL.
In test [8] the target is T5, human TIM-1 (Sino Biological Inc., catalog No. 11051-H08H1) (human, UniProt Q96D42 21-290).
T5 construct: Bought protein
T5 sequence (looked up): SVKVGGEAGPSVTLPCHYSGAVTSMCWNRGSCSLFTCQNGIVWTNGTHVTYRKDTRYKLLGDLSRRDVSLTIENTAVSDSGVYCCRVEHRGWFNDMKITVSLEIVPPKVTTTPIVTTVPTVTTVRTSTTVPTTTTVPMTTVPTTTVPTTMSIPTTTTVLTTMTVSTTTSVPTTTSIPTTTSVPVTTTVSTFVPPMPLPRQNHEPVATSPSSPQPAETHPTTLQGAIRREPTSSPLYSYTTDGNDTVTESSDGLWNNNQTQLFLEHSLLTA
The test can be described thus: ELISA, plate coated with human TIM-1 at 1 ug/mL, detection with HRP-labeled goat anti-human IgG.

Test [9] concerns the target T1, human TIM-3 antigen (His-tagged TIM-3 …). The test can be described thus: BLI (ForteBio Octet) as stated; antibody captured by anti-human IgG Fc, antigen in solution, 1:1 model. (In general: In BLI a coated tip is dipped into the sample, and binding shifts an interference pattern.)
Test [10] shares this target. Put plainly: ELISA, plate coated with His-tagged human TIM-3 ECD, goat anti-mouse IgG-HRP.
The target is the same in test [11]. Put plainly: BLI (ForteBio Octet) as stated; antigen in solution, 1:1 model; capture of the murine antibody not described.

B1: control antibody AB12S1 (antibody, human IgG1, kappa, N297A, V domains shown)
VH: QVQLQQPGAELVKPGASVKMSCKASGYTFTSYNMHWIKQTPGQGLEWIGDIYPGNGDTSYNQKFKGKATLTADKSSSTVYMQLSSLTSEDSAVYYCARVGGAFPMDYWGQGTSVTVSS
VL: DIVLTQSPASLAVSLGQRATISCRASESVEYYGTSLMQWYQQKPGQPPKLLIYAASNVESGVPARFSGSGSGTDFSLNIHPVEEDDIAIYFCQQSRKDPSTFGGGTKLEIKR
notes: Variable regions derived from anti-TIM-3 antibody ABTIM3 of U.S. Pat. No. 9,605,070; also called positive control antibody AB12S1
As a reminder, the EC50 (read off the curve) is the midpoint of the concentration-response curve. One may read the IC50 as the point on the concentration scale where inhibition reaches its midpoint. Consider B1, for which, in test [1], the “EC50 (read off the curve)” value was around 0.003 µg/mL. The results for the IC50 in test [2] and in test [3] were 3.2 µg/mL and 0.259 µg/mL, respectively.

B2: humanized anti-TIM-3 antibody AB12S3 (antibody, human IgG4 S228P, kappa, V domains shown)
VH: EVQLVQSGAEVKKPGASVKVSCKASGYTFTNYVMHWMRQAPGQRLEWIGYIDPDNDGIKYNEKIKGKATLTSDKSSSTAYMELSSLRSEDTAVYYCARDFGYVDWFPYWGQGTTVTVSS
VL: DIVMTQSPSSLSASVGDRVTITCKASQDVTTAVAWYQQKPGKAPKLLIYSASNRYIGVPDRFTGSGSGTDFTFTISSLQPEDIATYYCQQHYSIPPTFGGGTKVEIKR
notes: Human IgG4 S228P (EU) heavy chain and human kappa light chain
One may read the Kd as the equilibrium constant for the complex coming apart. Turning to B2, the binding result in test [4], in [5] and in [8] was “no binding (tested: 10000 ng/mL)” each time. Also, the “EC50 (read off the curve)” value is around 0.004 µg/mL in test [1], around 0.008 µg/mL in test [6] and 0.05 µg/mL in [7]. Further, the IC50 in test [2] stood at 1.33 µg/mL; in [3] it was 0.202 µg/mL. The Kd in test [9] turned out to be 2.71 pM.

B3: humanized anti-TIM-3 antibody AB12S4 (antibody, human IgG4 S228P, kappa, V domains shown)
VH: B2 VH with Q6L, K12V, V20M, A40K, T91S
VL: B2 VL with L11M, A13T, A43S, L78V, T85V, K103N, V104L
notes: as for B2
A word on the koff: it is a measure of how fast the partners let go of each other. A word on the kon: it is a measure of how fast the partners come together. As to B3, in [1], the “EC50 (read off the curve)” value was around 0.004 µg/mL. In [9], this molecule displayed a Kd below 1 pM, an off-rate (koff) below 1e-07 s⁻¹ and a kon of 254000 M⁻¹ s⁻¹.

B4: humanized anti-TIM-3 antibody AB12S6 (antibody, V domains shown)
VH: QVQLQLSGAEVKKPGASVKVSCKASGYTFTNYVMHWVRQAPGQRLEWMGWIDPDNDGIKYSQKFQGRVTLTSDKSASTAYMELSSLRSEDTAVYYCARDFGYVDWFPYWGQGTLVTVSS
VL: DIQMTQSPSSMSASVGDRVTITCQASQDVTTALNWYQQKPGKSPKLLIYSASNLETGVPSRFSGSGSGTDFTFTISSLQPEDIATYYCQQHYSIPPTFGGGTNLEIK
As to B4, in [9], the Kd was 4.38 pM, the koff worked out at 8.68e-07 s⁻¹ and the kon was found to be 198000 M⁻¹ s⁻¹.

B5: humanized anti-TIM-3 antibody AB12S5 (antibody, V domains shown)
VH: B4 VH with Q5V, L6Q, L70I, S72R, K74T, L114T
VL: B4 VL with M11L, S43A, N103K, L104V
notes: it was captured through anti-human IgG Fc
Regarding B5, in [9], binding was characterised by a dissociation constant (Kd) of 4.82 pM, the koff is 6.32e-07 s⁻¹ and the kon was 131000 M⁻¹ s⁻¹.

B6: humanized anti-TIM-3 antibody AB12S7 (antibody, V domains shown)
VH: B4 VH with Q1E, V37M, A40K, L70I, S72R, A76S
VL: B4 VL with Q3V, M11L, P40S, K42Q
Turning to B6, in [9], the Kd is 3.44 pM, the koff came to 7.66e-07 s⁻¹ and the kon stood at 223000 M⁻¹ s⁻¹.

B7: murine monoclonal antibody Mab22 (antibody, mouse IgG1, V domains shown)
VH: EVQLQLSGPELVKPGASVKMSCKASGYTFTNYVMHWMRQKPGQGLEWIGYIDPDNDGIKYNEKIKGKATLTSDKSSSTAYMELSSLTSEDSAVYYCARDFGYVDWFPYWGQGTLVTVSA
VL: DIVMTQSHKFMSTSVGNRVSITCKASQDVTTAVAWYQQKSGQSPKLLIYSASNRYIGVPDRFTGSGSGTDFTFTISSVQTEDLAVYYCQQHYSIPPTFGGGTNLEIK
notes: subtype identified as murine IgG1 (Kappa); purified from hybridoma supernatant on protein G; also called antibody secreted by hybridoma clone #22; murine antibody Mab22
As usually defined, the EC50 is the concentration at which the effect is half-maximal. Consider B7, for which, in test [10], the EC50 came to 0.0063 µg/mL. In test [11], this molecule showed a Kd below 1 pM, a koff below 1e-07 s⁻¹ and a kon of 345000 M⁻¹ s⁻¹.

Values taken from patent US20210238282A1 (AMPSOURCE BIOPHARMA SHANGHAI, published 2021).
